Reference: patent US20120100604A1, “METHODS AND COMPOSITIONS FOR GENERATING SELF ATTENUATING GENETIC CIRCUITRY” (THE REGENTS OF THE UNIVERSITY OF CALIFORNIA, priority 2008, published 2012)

Assays:
human satellite cells = test: Myogenic regenerative capacity of human satellite cells (proliferating fusion-competent myoblasts, desmin/BrdU); type: cell-based; details: young and old human satellite cells in culture
Experimental: Myofiber and satellite cell cultures were isolated from basal state human biopsies, in a manner similar to those previously described for the mouse model (Conboy et al. (2003) Science 302:1575-1577). Whole muscle biopsies were prepared for myofiber fragments by enzymatic digestion −37° C. in DMEM (Invitrogen, Carlsbad, Calif.)/Pen-Strep (Invitrogen)/0.2% Collagenase Type IIA (Sigma), trituration, and multiple sedimentation and washing procedures. Isolated satellite cells and myofibers were resuspended in growth medium (Ham's F10 nutrient mixture—Mediatech, Inc., Herndon, Va.), 10% BGS, 5 ng/ml hbFGF (Invitrogen) and 1% Pen-Strep, and cultured on Matrigel (diluted 1:250). Blood was collected from subjects for sera isolation. Briefly, blood cells were coagulated followed by centrifugation at 8,000 rpm, 4° C. in a microfuge for 3 minutes. […]
To examine effects of TGF-β on myogenic properties of human muscle stem cells, exogenous molecule was added to young and old human satellite cells in culture. Myogenic capacity was determined based on numbers of fusion-competent, proliferating myoblasts, e.g., cells that rapidly (in approximately 2 hours) incorporate BrdU, co-express desmin and MyoD and fuse into eMyHC+myotubes when transferred to mitogen-low medium. […]

[1] = test system: MAPK pathway / Notch in human satellite cells; test: Western blot of Delta, active Notch and pERK in human satellite cells cultured with MAPK agonists and antagonists; type: cell-based; details: human satellite cells in culture
Experimental: Myofiber and satellite cell cultures were isolated from basal state human biopsies, in a manner similar to those previously described for the mouse model (Conboy et al. (2003) Science 302:1575-1577). Whole muscle biopsies were prepared for myofiber fragments by enzymatic digestion −37° C. in DMEM (Invitrogen, Carlsbad, Calif.)/Pen-Strep (Invitrogen)/0.2% Collagenase Type IIA (Sigma), trituration, and multiple sedimentation and washing procedures. Isolated satellite cells and myofibers were resuspended in growth medium (Ham's F10 nutrient mixture—Mediatech, Inc., Herndon, Va.), 10% BGS, 5 ng/ml hbFGF (Invitrogen) and 1% Pen-Strep, and cultured on Matrigel (diluted 1:250). Blood was collected from subjects for sera isolation. Briefly, blood cells were coagulated followed by centrifugation at 8,000 rpm, 4° C. in a microfuge for 3 minutes.
For Western Blot analysis, whole skeletal muscle lysates were prepared in lysis buffer (50 mM Tris, 150 mM NaCl, 1% NP40, 0.25% sodium deoxycholate and 1 mM EDTA, pH 7.4) with addition of protease inhibitor cocktail (Sigma) and 1 mM PMSF. Phosphatase activity was inhibited by 1 mM sodium fluoride and 1 mM sodium orthovanadate. For most assays, 30 μg protein extracts were run on pre-cast SDS PAGE gels (BioRad). Primary antibodies were diluted in 5% non-fat milk/1× PBST, and nitrocellulose membranes were incubated with antibody mixtures overnight at 4° C. HRP-conjugated secondary antibodies (Santa Cruz Biotech) were diluted 1:1000 in 1× PBST/1% BSA and incubated for 1 hour at room temperature. Blots were developed using Western Lightning ECL reagent (Perkin Elmer) and analyzed with Bio-Rad Gel Doc/Chemi Doc Imaging System and Quantity One software. Results were quantified by digitizing the data and normalizing pixel density of examined protein by actin-specific pixel density.
The levels of Delta, amounts of active Notch and the efficiency of myogenic responses in human satellite cells cultured in the presence of agonists and antagonists of MAPK pathway were investigated. […]

[2] = test system: muscle stem cells (satellite cells); test: Myogenic responses of mouse muscle stem cells in young or old mouse sera (TGF-β1 depletion and add-back, Wnt3A, FRP3); type: cell-based
Experimental: To examine the relative role of circulating TGF-β1 in the age-specific inhibition of muscle stem cell responses, TGF-β1 was depleted from young and old mouse sera and then added back in a range of concentrations. Muscle stem cells derived from young and old mice were cultured in the presence of young and old mouse sera that differed only in the levels of TGF-β1, and the regenerative responses of these cells were assayed. Serum was depleted of TGF-β1 by incubation with a TGF-β1 specific antibody (or an isotype-matched control IgG) followed by binding and removal of the TGF-β1-antibody complexes (or IgG control antibody complexes, e.g. control sera) using protein G-coated agarose beads. The success in the TGF-β1 depletion was confirmed by ELISA. The myogenic regenerative potential of muscle stem cells was quantified based on their ability to rapidly (overnight) generate de-novo myogenic lineages: BrdU-incorporating desmin+myoblasts (myogenic proliferation) that differentiate into post-mitotic eMyHC+myotubes (myogenic differentiation). The time course of such de-novo in vitro myogenesis that recapitulates the in vivo muscle repair is shown in FIG. 14A-D. Myogenic proliferation (at 24-28 hours of culture) and myogenic differentiation (at 48-72 hours of culture) were consistently higher for young satellite cells as compared to old satellite cells and in young sera as compared to old sera at all time points (FIGS. 17 and 18). The non-myogenic, desmin negative proliferating fibroblasts (known to contaminate satellite cell preparations at ˜2-5% and to expand in the presence of old sera or high levels of TGF-β (Carlson et al., 2008) were less numerous in cultures with experimentally calibrated levels of TGF-β1 (FIG. 15) and also declined in cultures with exogenous Wnt 3A (FIG. 16A).
Recombinant TGF-β1 was added at a range of concentrations to these mouse sera (depleted from endogenous TGF-β1) and assayed the regenerative responses of muscle stem cells, as above. […] The levels of TGF-β1 that are permissive for myogenic responses correspond to the range of bioactive TGF-β1 found in young blood sera, while the inhibitory range corresponds to the levels typical of aged circulation. The threshold mode of TGF-β1-imposed inhibition of muscle repair established here, also correlate well with the results of heterochronic parabiosis.
A similar rescue of satellite cell responses in the presence of old serum was reported to be achieved by inhibition of Wnt via FRPs, and exogenous Wnt3A was reported to inhibit satellite cell myogenic responses, in favor of fibroblast trans-differentiation (Brack et al., (2007), Science, 317:807-810). Thus, an investigation was conducted to determine whether Wnt was potentially synergistic with the TGF-β1-dependent attenuation of myogenic potential. Myogenic potential of young and old satellite cells was examined in the following conditions: young serum with exogenous Wnt3A (by itself or simultaneously with exogenous TGF β1) or old serum with exogenous FRP3 (by itself or simultaneously with TGF-β neutralization). […] In fact, consistent with the previously reported pro-myogenic activity of Wnt, Wnt3A […].
Myofiber explant cultures and primary myogenic progenitor cells were generated from C57/Bl6 mice using methods known in the art (see e.g., Conboy et al., (2003), Science, 302:1575-1577). Myoblasts were maintained in growth media (Ham's F-10, 20% FBS, 5 ng/ml basic-FGF, and penicillin-streptomycin). Opti-MEM was used to culture myofibers explants in 10% young, 10% old, or 10% young and old mouse serum (5% each). Differentiation media consisted of DMEM and 5% horse serum. Basic-FGF was obtained from Sigma (St. Louis, Mo.) and R&D systems (Minneapolis, Minn.), Opti-MEM was obtained from Invitrogen (Carlsbad, Calif.), and all other cell culture reagents were obtained from Cellgro (Herndon, Va.).

old muscle repair = test: Muscle regeneration after CTX injury in mice given systemic TGF-β attenuators; type: in vivo, mouse
Experimental: Five days before the end of treatment, muscle was injured. At the end of treatment, animals were sacrificed and muscle was collected. BrdU was injected (intraperitoneal) at 3 days post-injury to label proliferating, fusion-competent myoblasts.
Experiments were conducted to rejuvenate muscle repair in old tissue by attenuating TGF-β pathway activity through systemic pharmacological intervention, in vivo. Three independent attenuators were used: (1) a small molecule inhibitor of TGF-β RI Kinase, (2) TGF-β neutralizing antibody and (3) a decoy composed of the extracellular portion of TGF-β receptor II. These molecules were administered systemically to mice, twice daily. After 10 days of dosage, muscle was injured by CTX, and 5 days after injury and BrdU administration the muscle was harvested, frozen, and examined histologically.
To control for the potential differences in the half-life of anti-TGF-β neutralizing antibody as compared to TGF-β RI Kinase inhibitor, constitutive systemic delivery of these molecules was provided by osmotic subcutaneous pumps for four weeks.

TGF-β/pSmad signaling = test: Western blot of pSmad3 and TGF-β1 in muscle of treated old mice; type: in vivo, mouse; details: osmotic pumps
TGF-β1 = test: ELISA of circulating TGF-β1 in treated old mice; type: in vivo, mouse
From the text: Control injections/pumps of goat IgG yielded data typical of young and old untreated mice for muscle repair and TGF-β1 ELISA.

In the case of FGF-2: MAPK agonist FGF-2, the “myogenic regenerative capacity (proliferating fusion-competent myoblasts, desmin/BrdU)” value (human satellite cells) is reported as “significantly enhanced”, the Delta levels [1] is reported as “induced” and the “active Notch levels” value [1] is reported as “induced”. For the same molecule, the “levels of pERK” value [1] was “induced”.

In the case of “TGF-β1: recombinant TGF-β1 added to cultures or depleted sera [reference compound]”, the “concentration of TGF-β1 that alone suffices for inhibition of myogenic satellite cell responses” value ([2]; recombinant TGF-β1 added to mouse sera depleted of endogenous TGF-β1, 1-5 ng/ml and higher) is reported as 1 to 5 ng/mL and the “myogenic regenerative capacity (proliferating fusion-competent myoblasts, desmin/BrdU)” value (human satellite cells) is reported as “dramatically reduced”.

B1: Wnt3A: exogenous Wnt3A (protein, UniProt P56704 19-352, looked up)
Protein Wnt-3a: SYPIWWSLAVGPQYSSLGSQPILCASIPGLVPKQLRFCRNYVEIMPSVAEGIKIGIQECQHQFRGRRWNCTTVHDSLAIFGPVLDKATRESAFVHAIASAGVAFAVTRSCAEGTAAICGCSSRHQGSPGKGWKWGGCSEDIEFGGMVSREFADARENRPDARSAMNRHNNEAGRQAIASHMHLKCKCHGLSGSCEVKTCWWSQPDFRAIGDFLKDKYDSASEMVVEKHRESRGWVETLRPRYTYFKVPTERDLVYYEASPNFCEPNPETGSFGTRDRTCNVSSHGIDGCDLLCCGRGHNARAERRREKCRCVFHWCCYVSCQECTRVYDVHTCK
For B1, the “generation of fusion-competent proliferating myoblasts by satellite cells” value ([2]; Wnt3A simultaneously with exogenous TGF-β1, young serum) was “enhanced”, the myotube formation ([2]; exogenous Wnt3A) was “enhanced” and the “presence of non-myogenic fibroblastic cells (desmin-BrdU+)” value ([2]; exogenous Wnt3A) was “actually reduced”. For the same molecule, the “myogenic potential in young serum” value ([2]; young serum with exogenous Wnt3A) was “did not reduce”.

B2: FRP: exogenous FRP3, inhibitor of Wnt (protein, UniProt Q92765 33-325, looked up)
Secreted frizzled-related …: AACEPVRIPLCKSLPWNMTKMPNHLHHSTQANAILAIEQFEGLLGTHCSPDLLFFLCAMYAPICTIDFQHEPIKPCKSVCERARQGCEPILIKYRHSWPENLACEELPVYDRGVCISPEAIVTADGADFPMDSSNGNCRGASSERCKCKPIRATQKTYFRNNYNYVIRAKVKEIKTKCHDVTAVVEVKEILKSSLVNIPRDTVNLYTSSGCLCPPLNVNEEYIIMGYEDEERSRLLLVEGSIAEKWKDRLGKKVKRWDMKLRHLGLSKSDSSNSDSTQSQKSGRNSNPRQARN
In the case of B2, the “regeneration of old muscle in vivo” value (old muscle repair; experimental attenuation of Wnt by FRP) is reported as “did not improve” and the “myogenic responses in old serum” value ([2]; old serum with exogenous FRP3) is reported as “did not rescue”.

B3: soluble TGF-β receptor II: a decoy composed of the extracellular portion of TGF-β receptor II (protein, UniProt P37173 23-166, looked up)
extracellular domain: TIPPHVQKSVNNDMIVTDNNGAVKFPQLCKFCDVRFSTCDNQKSCMSNCSITSICEKPQEVCVAVWRKNDENITLETVCHDPKLPYHDFILEDAASPKCIMKEKKKPGETFFMCSCSSDECNDNIIFSEEYNTSNPDLLLVIFQ
modifications: extracellular domain
B3 was tested, and the “levels of TGF-β1 in old muscle” value (TGF-β/pSmad signaling) was “not”, the “levels of pSmad3 in old muscle” value (TGF-β/pSmad signaling) was “not” and the “muscle regeneration / myogenic regenerative capacity” value (old muscle repair; old mice, systemic administration twice daily, CTX injury after 10 days, 5 days post-injury) was “did not result in the rejuvenation”. For the same molecule, the “circulating levels of TGF-β1” value (TGF-β1) was “failed to reduce”.
